Reference: patent publication US20110293610A1 (published 2011)

Key:
[1] = biological target: T1, B Lymphocyte Stimulator, soluble form (human) (human, UniProt Q9Y275 134-285, biotinylated with NHS-biotin where used as biotinylated B Lymphocyte Stimulator); assay: phage competition ELISA on P388 plasma membranes
T1 construct: Coated on plastic, captured on streptavidin plates, amine-coupled to a CM5 chip or free in solution, depending on the assay; also called BLyS; immobilized B Lymphocyte Stimulator
Description: P388 plasma membranes (50 μl per well) were coated at 10 μg/ml in PBS onto Falcon 96-well plates overnight at 4° C. The method is otherwise essentially as described Example 16.

TRAIL = biological target: T2, TRAIL (human, UniProt P50591 114-281); assay: phage ELISA
T2 construct: also called TNF-related apoptosis inducing ligand
T2 sequence (P50591 114-281 limits assumed): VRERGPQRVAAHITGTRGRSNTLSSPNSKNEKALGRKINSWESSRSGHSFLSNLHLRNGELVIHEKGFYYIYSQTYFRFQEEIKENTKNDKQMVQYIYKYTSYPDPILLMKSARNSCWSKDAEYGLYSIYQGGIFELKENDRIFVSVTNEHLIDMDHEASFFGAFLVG

TNF-beta = biological target: T3, TNF-beta (human, UniProt P01374 35-205); assay: phage ELISA
T3 construct: also called TNFβ; Tumour Necrosis Factor-beta
T3 sequence (looked up): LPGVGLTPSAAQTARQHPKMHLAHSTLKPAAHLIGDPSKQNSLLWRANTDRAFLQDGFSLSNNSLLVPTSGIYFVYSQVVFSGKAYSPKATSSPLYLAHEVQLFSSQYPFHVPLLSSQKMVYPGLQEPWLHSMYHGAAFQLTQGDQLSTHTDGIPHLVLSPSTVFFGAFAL

Fas ligand = biological target: T4, Fas ligand (human, UniProt P48023 134-281, limits assumed); assay: phage ELISA
T4 sequence (looked up): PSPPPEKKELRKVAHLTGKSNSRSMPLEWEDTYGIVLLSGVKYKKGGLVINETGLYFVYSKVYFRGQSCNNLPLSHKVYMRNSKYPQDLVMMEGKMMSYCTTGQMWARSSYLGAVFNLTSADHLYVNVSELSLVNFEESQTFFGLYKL

[2] = biological target: T1, B Lymphocyte Stimulator, soluble form …; assay: purified scFv, inhibition of biotinylated BLyS binding to IM9 cells
Description: To a separate 96-well plate, titrate test scFvs in MPBS, in triplicate, over a concentration range from 10 μg/ml down to 0.001 μg/ml were added. The final volume of test scFv in each well was 55 μl. […] Plates were then incubated at room temperature for 30 minutes.
Plates were washed three times in PBST and three times in PBS, tapped dry and 50 μl per well added of streptavidin-Delfia (Wallac) at 1:1000 dilution in the Manufacturer's assay buffer. The plates were then incubated at room temperature for 1 hour and washed six times in Delfia wash solution (Wallac). After tapping the plates dry, 100 μl per well of Delfia enhancement solution (Wallac) was added. The plates were gently tapped to encourage micelle formation, incubated at room temperature for 10 minutes, and fluorescence read on a Wallac 1420 workstation at […].

[3] = biological target: T5, mouse B Lymphocyte Stimulator (mouse, UniProt Q9WU72 127-309, limits assumed); assay: phage ELISA
T5 construct: also called murine B Lymphocyte Stimulator; immobilized mouse B Lymphocyte Stimulator
T5 sequence (Q9WU72 127-309 limits assumed): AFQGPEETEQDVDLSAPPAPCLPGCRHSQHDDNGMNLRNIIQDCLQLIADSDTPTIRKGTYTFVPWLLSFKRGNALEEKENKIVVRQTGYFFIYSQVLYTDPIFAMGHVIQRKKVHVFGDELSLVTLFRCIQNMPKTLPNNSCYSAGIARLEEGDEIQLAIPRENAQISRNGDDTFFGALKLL

TNF-alpha = biological target: T6, TNF-alpha (human, UniProt P01375 77-233); assay: phage ELISA
T6 construct: also called TNFα; TNF-α
T6 sequence (P01375 77-233 limits assumed): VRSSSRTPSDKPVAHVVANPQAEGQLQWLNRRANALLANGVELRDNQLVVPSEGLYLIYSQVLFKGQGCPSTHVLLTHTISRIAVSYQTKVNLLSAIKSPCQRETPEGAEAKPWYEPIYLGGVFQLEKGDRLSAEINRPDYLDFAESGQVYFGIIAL

[4] = biological target: T1, B Lymphocyte Stimulator, soluble form …; assay: cell-based or functional assay
[5] = biological target: T7, membrane-bound B Lymphocyte Stimulator on U937 plasma membrane preparations (human, UniProt Q9Y275 1-285); assay: phage ELISA
T7 construct: Natural protein in plasma membrane fractions of the human cell line U937 coated on ELISA plates; also called U937 plasma membranes; U937 membranes

[6] = biological target: T8, HIS-tagged B Lymphocyte Stimulator (human, UniProt Q9Y275 71-285); assay: phage competition ELISA on U937 plasma membranes
T8 construct: Expressed in E. coli from pQE9 and purified; also called histidine-tagged B Lymphocyte Stimulator; HIS-B Lymphocyte Stimulator; not shown: histidine tag of the pQE9 vector
Description: (§1) For each test phage antibody, 3 aliquots of 20 μl 18% marvel/6×PBS were transferred into separate wells of a 96-well plate. The first aliquot was supplemented with His-tagged B Lymphocyte Stimulator to a final concentration of 60 μg/ml. The second aliquot was supplemented with soluble B Lymphocyte Stimulator to a final concentration of 60 μg/ml. The third aliquot was not supplemented with any competing antigen. One hundred μl of phage supernatant was then added to each aliquot and left to block at room temperature for 1 hour.
(§2) The antigen-coated plates were washed once with PBS before the addition of 200 μl/well 3% marvel/PBS. These plates were left to block at 37° C. for 1 hour and were then washed once with PBS. Duplicate samples of 50 μl pre-blocked phage (above) were added to the antigen-coated plates and left at room temperature for 1 hour. Plates were washed 3× with PBS/0.1% Tween 20, then 3× with PBS. Fifty μl/well mouse anti-M13 HRP (Pharmacia) at 1/5000 in 3% Marvel/PBS was added and left for 1 hour at room temperature. Plates were washed 3 times with PBS/0.1% Tween 20, then 3 times with PBS. Fifty […] HRP-labelled anti-mouse Envision polymer (DAKO) at 1/50 in 3% marvel/PBS was added and left for 1 hour at RT. Plates were washed 3 times with PBS/0.1% Tween 20, then 3 times with PBS. Next, 50 μl/well of TMB (Sigma) was added and plates left to develop for 30 to 60 minutes. When sufficient color has developed, 25 μl/well 0.5M H₂SO₄ was added to stop the reaction. The plates were read at 450 nm on a microtiter plate reader (Bio-Rad 3550).

[7] = biological target: T1, B Lymphocyte Stimulator, soluble form …; assay: phage competition ELISA on U937 plasma membranes
Description: as §1, §2

LIGHT = LIGHT (human, UniProt O43557 74-240, limits assumed); assay: phage ELISA
LIGHT, sequence (O43557 74-240 limits assumed): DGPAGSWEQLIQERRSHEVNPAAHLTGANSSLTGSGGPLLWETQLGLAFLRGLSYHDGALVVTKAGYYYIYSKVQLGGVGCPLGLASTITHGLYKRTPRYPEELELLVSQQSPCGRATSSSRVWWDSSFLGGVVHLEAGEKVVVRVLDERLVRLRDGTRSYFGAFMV

Bovine serum albumin = biological target: T9, Bovine serum albumin (bovine, UniProt P02769 25-607); assay: phage ELISA
T9 construct: also called BSA
T9 sequence (P02769 25-607 limits assumed): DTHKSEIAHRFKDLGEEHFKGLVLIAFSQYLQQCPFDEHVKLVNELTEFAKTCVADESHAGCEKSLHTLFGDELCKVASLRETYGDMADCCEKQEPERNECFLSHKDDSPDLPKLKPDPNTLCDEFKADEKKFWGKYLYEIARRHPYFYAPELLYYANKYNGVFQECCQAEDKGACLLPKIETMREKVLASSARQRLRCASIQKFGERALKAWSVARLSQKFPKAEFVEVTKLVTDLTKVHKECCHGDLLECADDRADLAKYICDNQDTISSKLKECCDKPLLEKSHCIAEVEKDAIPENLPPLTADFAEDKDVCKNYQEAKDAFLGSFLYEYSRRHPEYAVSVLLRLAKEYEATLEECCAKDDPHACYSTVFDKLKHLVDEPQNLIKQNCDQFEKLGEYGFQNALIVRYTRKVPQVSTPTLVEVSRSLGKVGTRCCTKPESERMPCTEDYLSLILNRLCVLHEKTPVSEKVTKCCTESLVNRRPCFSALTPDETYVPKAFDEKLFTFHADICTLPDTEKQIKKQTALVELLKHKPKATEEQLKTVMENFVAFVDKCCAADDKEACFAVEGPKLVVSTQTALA

B1: I082H08 (scFv)
scFv: EVQLVESGGGLVQPGGSLRLSCAASGFTFSDYGMHWVRQRPGKGLEWIAFIGSDGSNKYYGDTVKGRFTISRDNAKNSLYLQMNSLRAEGTAVYYCARDWDMDVWGQGTMVTVSSGGGGSGGGGSGGGGSSHVILTQPRSVSGSPGQSVTISCTGTSSDVGGYHYVSWYQQHPGKAPRLMIYEVTKRPSGVSNRFSGSKSGNTASLTISGVQAEDEADYYCSSYTSASTVIFGGGTKLTVLG
- binding result [1]: no binding

B2: I050A07 (scFv)
scFv: QVQLVQSGAEVKKPGASMKVSCKASAGRASAYGFAMHPIHWVRQAPGQGLEWMGWINGGTGNTKYSEKFLGRVTMTSDTSATTAYMELSSLRSEDTAVYYCARQDNDPLTGYKLGFDYWGKGTLVTVSSGGGGSGGGGSGGGGSAQSVVTQPPSVSGAPGQRVTISCTGSSTNVGAGYGVHWYQQFPETAPKLLIYGGSNRPSGVPDRFSGSQSGTSASLAITGLQAEDEADYYCQSYDTTLSGYVFGTGTKVTVLG
- binding result (TRAIL): no binding
- binding result (TNF-beta): no binding
- binding result (Fas ligand): no binding
- IC50 [2]: 17.1 nM

B3: I007F11 (scFv)
scFv: GVQLVQSGAEVKKPGASVKVSCKASGYTFTNYGITWVRQTPGQGLEWMGWISAYNGNRNYAQKLQGRVTMTTDTSTSTAYMELRSLRSDDTAVYYCVRDGIDILLVPAALMDVWGQGTMVTVSSGGGGSGGGGSGGGGSQSVLTQPASVSGSPGQSITISCTGTSSDVGGYNYVSWYQQHPGKAPKLMIYEGSKRPSGVSNRFSGSKSGNTASLTISGLQAEDEADYYCSSYTTRSTRVFGGGTKLTVLG
- binding result [3]: no binding
- binding result (TNF-alpha): no binding
- binding result (TRAIL): no binding
- binding result (TNF-beta): no binding
- binding result (Fas ligand): no binding
- IC50 [2]: 7.9 nM

B4: I116A01 (whole IgG1) (antibody, V domains shown)
VH: QVQLQQSGAEVKKPGSSVRVSCKASGGTFNNNAINWVRQAPGQGLEWMGGIIPMFGTAKYSQNFQGRVAITADESTGTASMELSSLRSEDTAVYYCARSRDLLLFPHHALSPWGRGTMVTVSS
VL: SSELTQDPAVSVALGQTVRVTCQGDSLRSYYASWYQQKPGQAPVLVIYGKNNRPSGIPDRFSGSSSGNTASLTITGAQAEDEADYYCSSRDSSGNHWVFGGGTELTVLG
- IC50 for the inhibition of human B Lymphocyte Stimulator induced-proliferation of murine B cells (3H-thymidine incorporation) [4]: 0.06 nM

B5: I079B04 (scFv)
scFv: EVQLVESGGGLVQPGGSLRLSCAASGFTFSDYAMSWVRQAPGKGLEWVSAISGSGGSTSYADSVKGRFTISRDNSKNTLYLQMNSLRAEDTAVYYCASLLSDYWGRGTTVTVSSGGGGSGGGGSGGGGSQSVLTQPASVSGSPGQSITISCTGTSSDVGGYNYVSWYQQHPGKAPKLMIYEGSKRPSGVSYRFSGSKSGNTASLTISGLQAEDEADYYCSSYTTRSTRVFGGGTKLTVLG
- binding result [5]: binds
- binding result [6]: binds
- binding result [7]: no binding (tested: 60 µg/ml competing antigen)

B6: I079F08 (scFv)
scFv: QMQLVQSGGGVVQPGRSLRLSCAASGFTFSSYGMHWVRQAPGKGLEWVAVISYDGSIKYYADSVKGRFTISRDNSKNTLYLQMNSLRAEDTAVYYCARYYYHSSGSDAFDIWGQGTLVTVPSGGGGSGGGGSGGGGSQSVLTQPPSASGTPGQRVTISCSGSSSNIGSNTVNWYQRLPGAAPQLLIYNNNQRPSGVPDRFSGSKSGTSASLAISGLQSEDEADYYCAAWDDSLNGWVFGGGTKLTVLG
- binding result [5]: binds
- binding result [6]: binds
- binding result [7]: no binding (tested: 60 µg/ml competing antigen)

B7: I079E02 (scFv)
scFv: QVQLVQSGAEVKKPGSSVKVSCKASGGTFSSYAISWVRQAPGQGLEWMGGIIPIFGTANYAQKFQGRVTITADKSTSTAYMELSSLRSDDTAVYYCARDSGSYYYDAFDIWGKGTMVTVSSGGGGSGGGGSGGGGSDIVMTQSPSTLSASVGDRVTITCRASQGISSWLAWYQQKPGKAPKLLIYAASSLQSGVPSRFSGSGSGTDFTLTISSLQPEDFATYYCQQANSFPLTFGGGTKVEIKR
- binding result [1]: no binding

B8: I080B01 (scFv)
scFv: QVQLVQSGAEVKKPGASVKVSCKASGYTFTNYYMHWVRQAPGQGLEWMGIINPRDVSTTYAQKFQGRATMTRDTSTSTVYMELNSLRSEDTAVYYCAREYSGYHYVEGGSYAMDVWGQGTMVTVSSGGGGSGGGGSGGGGSALSYVLTQPPSASGTPGQRVTITCSGSSSNIGNYYVNWYQQVSGTAPKLIIYRNNQRPSGVPDRFSGSKSGASASLAISGLRSEDEADYFCAAWDDSLREFVFGTGTKVTVLG
- binding result [5]: binds
- binding result [6]: binds
- binding result [7]: no binding (tested: 60 µg/ml competing antigen)

B9: I074B12 (scFv)
scFv: EVQLVQSGAEVKKPGSSVKVSCRASGGSFNHAISWVRQAPGRGLEWMGGILPMYGTANYAQKFQGRVTITADKLTNTVYMDLSRLRYEDTAVYYCARELGLSIVGATTGALDMWGRGTLVTVSSGGGGSGGGGSGGGGSALSYELTQPPSASGTPGQRVTISCSGSTSNIGSNAVNWYRQLPGTAPKLLVYSNNQVPSGVPDRFSGSKSGTSASLAISGLQSEDEADYYCAAWDDSLSGYVFGTGTQLTVLS
- binding result (LIGHT): no binding
- binding result (Bovine serum albumin): no binding
- binding result (TNF-alpha): no binding
- binding result (TRAIL): no binding
- binding result (TNF-beta): no binding
- IC50 [2]: 13 nM

B10: I099D03 (scFv)
scFv: QVQLVQSGAEVKKPGASVRVSCKSSGYTFTNYGISWVRQAPGQGLEWMGWISNNNGKTYYAQKVQGRVTMTTDTSTSTDYMELRGLRSDDTAIYYCARDNGGGTIGFDYWGRGTLVTVSSGGGGSGGGGSGGGGSAQAVLTQPSSVSGAPGQRVTMSCTGSSSNIGAGYDVHWYQQLPGTAPKLLIYDNTNRPSGVPDRFSGSRSGTSASLAITGLQAEDEADYFCQSYDITLSAVFGTGTKVTVLG
- binding result [1]: no binding
